Assay [1] concerns the target 9His-rsLAAO1 (L-amino acid oxidase from Rhizoctonia solani with nine histidine residues as affinity tag) (Rhizoctonia solani). Nature of the assay: SEC; native 9His-rsLAAO1 on calibrated Superdex 200 Increase 10/300 GL, 50 mM NaH2PO4 pH 8.2, 300 mM NaCl, 0.3 mL/min; without SDS.
For assay [2] the target is unchanged. Nature of the assay: SEC; 9His-rsLAAO1 activated with 1.5 mM SDS, added to the protein solution before chromatography; Superdex 200 Increase 10/300 GL, 50 mM NaH2PO4 pH 8.2, 300 mM NaCl. On the technique in general: Size exclusion chromatography separates by hydrodynamic size, large species first.

In general, stoichiometry N refers to the number of molecules, sites or subunits per partner or assembly.

For “9His-rsLAAO1 (L-amino acid oxidase from Rhizoctonia solani with nine histidine residues as affinity tag) (enzyme)”, the stoichiometry N in assay [1] and in assay [2] was 2 in each case.

The values are drawn from publication PMC6149798.
